Test results taken from paper PMC8924211 (Nature Communications, 2022).
Positions count from the first letter of the chain named.

Experiments:
Experiment in all cases: AlphaScreen or HTRF; saturation binding: HEK293 cells transfected with SNAP-tagged receptor (WT or mutant) and labelled with SNAP-Lumi4-Tb, incubated with increasing concentrations of galanin-A2 in the presence or absence of 100 uM unlabeled galanin, 1 h at room temperature; HTRF ratio 665 nm/620 nm
Settings in all cases: one partner purified
[1] = molecular target: T1, SNAP-GAL1R K197^5.35A (human, UniProt P47211 1-349, K197^5.35A, Lumi4-Tb on the SNAP tag)
T1 construct: also called K197A; source: HEK293, transfected, on cells; not shown: SNAP tag, N-terminal, kept
T1 sequence (looked up): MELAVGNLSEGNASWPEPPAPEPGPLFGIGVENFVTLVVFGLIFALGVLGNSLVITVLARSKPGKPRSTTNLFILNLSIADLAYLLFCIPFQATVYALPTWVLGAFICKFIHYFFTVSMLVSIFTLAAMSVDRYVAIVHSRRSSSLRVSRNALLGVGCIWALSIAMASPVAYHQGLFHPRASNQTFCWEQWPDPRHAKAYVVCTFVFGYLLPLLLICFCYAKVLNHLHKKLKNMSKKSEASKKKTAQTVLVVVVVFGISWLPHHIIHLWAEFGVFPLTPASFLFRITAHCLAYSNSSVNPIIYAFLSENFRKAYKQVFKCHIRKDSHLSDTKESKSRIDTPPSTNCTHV

[2] = molecular target: T2, N-terminal-SNAP-tagged GAL1R, wild type (human, UniProt P47211 1-349, Lumi4-Tb on the SNAP tag)
T2 construct: also called SNAP-GAL1R; GAL1R WT; source: HEK293, transfected, on cells; not shown: SNAP tag, N-terminal, kept
T2 sequence (looked up): T1 sequence (looked up) with A197K

[3] = molecular target: T3, SNAP-GAL1R W260^6.48A (human, UniProt P47211 1-349, W260^6.48A, Lumi4-Tb on the SNAP tag)
T3 construct: also called W260A; source: HEK293, transfected, on cells; not shown: SNAP tag, N-terminal, kept
T3 sequence (looked up): T1 sequence (looked up) with A197K, W260A

[4] = molecular target: T4, SNAP-GAL1R H112^3.29A (human, UniProt P47211 1-349, H112^3.29A, Lumi4-Tb on the SNAP tag)
T4 construct: also called H112A; source: HEK293, transfected, on cells; not shown: SNAP tag, N-terminal, kept
T4 sequence (looked up): T1 sequence (looked up) with H112A, A197K

[5] = molecular target: T5, SNAP-GAL1R F177^ECL2A (human, UniProt P47211 1-349, F177^ECL2A, Lumi4-Tb on the SNAP tag)
T5 construct: also called F177A; source: HEK293, transfected, on cells; not shown: SNAP tag, N-terminal, kept
T5 sequence (looked up): T1 sequence (looked up) with F177A, A197K

B1: galanin-A2 (full-length galanin labeled with the dye A2 on an additional cysteine at the C-terminal end) (peptide)
peptide: GWTLNSAGYLLGPHAVGNHRSFSDKNGLTSC
modifications: dye A2 on the additional C-terminal cysteine
notes: numbers count on: the mature protein; additional cysteine at the C-terminal end of the peptide, carries the dye A2; source: synthetic peptide (synthesized by Vazyme, China)
[1]
  Kd: 159 nM
[2]
  Kd: 22.2 nM
[3]
  Kd: 51.2 nM
[4]
  Kd: 59.8 nM
[5]
  Kd: 305 nM
